Reference: patent US12391751B2, “Antibody against advanced glycation end products and use thereof” (Bloom Technology Corporation, priority 2018, dated 2025)

B1: PB-1: mouse monoclonal antibody raised against A-peak-BSA; heavy-chain variable region SEQ ID NO 18, light-chain variable region SEQ ID NO 22 (antibody, listed as Mus musculus, V domains shown)
VH: EVRLQQSGPELVKPGTSVKISCKASGYSFTGYYMHWVKQSPVKSLEWIGRIIPYNGATSYNQNFKDKASLTVDKSSRTAYMDLHSLTSEDSAVYYCARSRYYGRAPYYFDYWGQGTTLTVSS
VL: DVVVTQTPLSLPVSLGDQASISCRSSQSIVHSNGNTYLEWYLQKPGQSPKLLIYKVSNRFSGVPDRISGSGSGTDFTLKISRVEAGDLGVYSCFQGSHVPFTFGSGTKLEIK
B2: SJ-5: mouse monoclonal antibody raised against GAL13-MSA; heavy-chain variable region SEQ ID NO 4, light-chain variable region SEQ ID NO 8 (antibody, listed as Mus musculus, V domains shown)
VH: EVMLVESGGRLVKPGGSLKLSCAASGFTFSSYGMSWVRQTPEKRLEWVATISGGGSYTYYPDSVKGRFTISRDNVKNNLYLQMSSLRSEDTALYYCARRGAYGDYGWFAYWGQGTLVTVSA
VL: DIVLTQSPATLSVTPGDSVSLSCRASQSINNNLHWYQQKSHESPRLLIKCASQSISGIPSRFSGSGSGTDFTLSINSVETEDFGMYFCQQSNSWPLTFGAGTKLELK

Assays:
[1] = test system: retinal pigment epithelial cells (ARPE-19 cells); assay: Tight junction breakdown suppression test, impedance by xCELLigence (Example 34); format: cell-based
Experimental: FBS (FUJIFILM Wako Pure Chemical Corp.) was added at 10% to D-MEM (FUJIFILM Wako Pure Chemical Corp.), and penicillin-streptomycin (Nacalai Tesque, Inc.) was added at 1% thereto to prepare DMEM medium. ARPE-19 cells (ATCC) were cultured in the DMEM medium using a 10 cm dish (Corning Inc.).
xCELLigence RTCA DP system (ACEA Biosciences, Inc.) was installed in a CO2 incubator and used in a state loaded overnight or longer after the installation for stabilization. Immediately before cell preparation, DMEM medium was added at 50 μL/well to E-plate (ACEA Biosciences, Inc.), and a background was measured.
The medium was removed from the ARPE-19 cells cultured in (1) described above, which were then washed by repeating the addition and removal of 10 mL of PBS(−) (FUJIFILM Wako Pure Chemical Corp.) twice. 1 mL of trypsin-EDTA (FUJIFILM Wako Pure Chemical Corp.) was added thereto, and the cells were dispersed by incubation in a CO2 incubator (Taitec Corp.) at 37° C. for 3 minutes. Then, the activity of trypsin was neutralized by the addition of 10 mL of DMEM medium. The neutralized cell dispersion was transferred to a 50 mL tube (Falcon) and centrifuged at 1500 rpm for 5 minutes using a centrifuge (Kubota Corp.). Then, the supernatant was discarded, and the precipitates were resuspended in 1 mL of DMEM medium. A 10 μL aliquot of the resuspended cell dispersion was mixed with 10 μL of Trypan Blue (NanoEnTek Inc.), and 10 μL thereof was added to a counting chamber (NanoEnTek Inc.). Then, the number of live cells was counted in Auto Cell Counter EVE (NanoEnTek Inc.). The cell suspension was diluted into 4.0×10^5 cells/mL with DMEM medium and inoculated at 80 μL/well to E-plate (ACEA Biosciences, Inc.).
The impedance of the plate was measured every 15 minutes using the xCELLigence RTCA DP system to confirm the adhesion of the cells to the plate. […] After the addition, the impedance was also measured every 15 minutes.
The impedance was measured 10 to 12 hours after the addition of A-peak-BSA and normalized to that of the A-peak-BSA addition group defined as 0.

[2] = target: T1, reaction of the SJ-5 antibody with A-peak-BSA (Bos taurus, UniProt P02769); assay: Cross-competition with HRP-labeled SJ-5 antibody by competitive ELISA (Example 33); format: binding; conditions: competitor antibody 0.049 to 50 μg/mL
T1 construct: made in house
T1 sequence (P02769 25-607): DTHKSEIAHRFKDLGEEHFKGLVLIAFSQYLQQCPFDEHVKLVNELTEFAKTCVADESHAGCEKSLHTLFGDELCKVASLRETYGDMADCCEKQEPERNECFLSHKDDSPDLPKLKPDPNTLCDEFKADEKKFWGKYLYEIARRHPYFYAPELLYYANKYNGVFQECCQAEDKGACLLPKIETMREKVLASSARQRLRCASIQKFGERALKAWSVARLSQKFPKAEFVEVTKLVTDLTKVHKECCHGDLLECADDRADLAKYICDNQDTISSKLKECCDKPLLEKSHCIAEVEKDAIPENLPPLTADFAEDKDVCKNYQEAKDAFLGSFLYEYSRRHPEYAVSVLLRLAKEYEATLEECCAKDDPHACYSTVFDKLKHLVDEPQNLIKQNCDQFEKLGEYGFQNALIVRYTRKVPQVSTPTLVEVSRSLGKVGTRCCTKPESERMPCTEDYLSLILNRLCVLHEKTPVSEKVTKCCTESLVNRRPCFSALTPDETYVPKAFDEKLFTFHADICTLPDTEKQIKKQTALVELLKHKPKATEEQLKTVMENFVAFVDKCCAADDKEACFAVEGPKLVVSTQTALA
Experimental: A solution of A-peak-BSA prepared into 1 μg/mL in a coating solution was added at 100 μL/well to a 96-well microtiter plate (Costar) and incubated overnight at 4° C.
Each well after the immobilization treatment was washed three times with a washing solution (300 μL), and PBS containing 0.05% Tween 20 (PBS-T) and containing 0.5% gelatin dissolved therein (200 μL) was added thereto and left standing at room temperature for 1 hour.
The PB-1 antibody, a mouse IgG isotype control (Ctrl-mIgG, Thermo Fisher Scientific Inc.), and the anti-GA-pyridine antibody 2A2 (Cosmo Bio Co., Ltd.) were each diluted with PBS-T containing 0.1% gelatin to prepare 4-fold dilution series (0.049 to 50 μg/mL). Also, a HRP-labeled SJ-5 antibody (Example 4) was diluted 10000-fold with PBS-T containing 0.1% gelatin.
Each well treated with the blocking solution was washed three times with a washing solution (300 μL), and the sample solutions of 4-fold dilution series (50 μL each) and the HRP-labeled SJ-5 antibody dilution solution (50 μL) were added thereto, stirred with a plate mixer for 2 minutes, and then incubated at room temperature for 1 hour. […]
Absorbance was measured at a dominant wavelength of 450 nm and a sub-wavelength of 650 nm with a microplate reader (Cytation 5, BioTek Instrument Inc.), and the absorbance at the sub-wavelength was subtracted from the absorbance at the dominant wavelength.

GAL13-BSA = target: T2, GAL13-BSA (Bos taurus, UniProt P02769); assay: Reactivity of novel monoclonal antibody by competitive ELISA (Example 6); format: binding
T2 construct: purchased Sigma-Aldrich Co. LLC
T2 sequence (P02769 25-607): as above
Experimental: GAL13-BSA was added at 100 μL/well with a concentration of 1 μg/mL and immobilized overnight at 4° C. The plate was washed three times with PBS containing 0.05% (v/v) Tween 20 (PBS-T) and then blocked with a carbonate buffer solution (pH 9.5) containing 0.5% (w/v) gelatin for 1 hour. After preparation of a POD-labeled SJ-5 antibody (0.4 μg/mL) and an anti-glyceraldehyde-derived AGEs polyclonal antibody (6 μg/mL) as a control, 10-fold serial dilution solutions (50 μL each) of GAL13-BSA or control BSA and the POD-labeled SJ-5 antibody or the anti-glyceraldehyde-derived AGEs polyclonal antibody as a control (50 μL) were added to the antigen-immobilized plate, stirred with a plate mixer, and then left standing at room temperature for 1 hour. After washing, an o-phenylenediamine solution (100 μL) prepared into 0.5 mg/mL with a 0.1 M citrate-phosphate buffer solution (pH 5.0) containing 0.02% (w/v) hydrogen peroxide was added to each well and left standing at 25° C. for 10 minutes. Then, color reaction was terminated by the addition of a 1 M sulfuric acid solution (50 μL) to each well. Then, absorbance at 490 nm was measured with a microplate reader.

Molecule	suppression of A-peak-BSA-induced reduction in impedance ([1]; 9 μL of PB-1 at 10, 3, 1 or 0.3 mg/mL)	suppression of reduction in impedance compared with SJ-5 antibody ([1]; PB-1 even in a lower concentration region)	change in absorbance of HRP-labeled SJ-5 binding to A-peak-BSA (cross-competition) [2]	antibody concentration giving similar results, lower than that of the polyclonal antibody (GAL13-BSA; competitive ELISA, versus anti-glyceraldehyde-derived AGEs polyclonal antibody) [times]	reactivity with GAL13-BSA in the competitive method (GAL13-BSA; immobilized GAL13-BSA, POD-labeled SJ-5 0.4 μg/mL, polyclonal antibody 6 μg/mL)	suppression of A-peak-BSA-induced reduction in impedance ([1]; SJ-5 final concentration of 1 mg/mL)
B1	significantly suppressed	stronger suppression than that by the SJ-5 antibody	decreased in a PB-1 concentration-dependent manner	–	–	–
B2	–	–	–	15	react favorably	suppression of the reduction was found
